# Residue numbers refer to the chain shown, from its start.
# B1: mouse anti-PD-1 monoclonal antibody E1A9C8A7 (antibody, V domains shown)
# VH: QVQLQQSGAEVVRPGVSVRISCKGSGYTFSDYVMHWMKQSHGESLEWIGVISTYHIPAVYNQKFKGKATMTVDKSSSTVYLELARLTSEDSAIYYCAREVYGDSYYFDVWGAGTTVTVSS
# VL: DVLMTQIPLSLPVSLGDQVSISCRSSQSIVHSNGNTYLEWYLQKPGQSPKLLIYKVSNRFSGVPDRFSGSGSGTDFTLKISRVEAEDLGVYYCFQGSHVPYTFGGGTKLEIK
# notes: Hybridoma-derived mouse mAb purified on Protein A; also called Mouse E1A9C8A7
# B2: mouse anti-PD-1 monoclonal antibody E2G4E10B7 (antibody, V domains shown)
# VH: QVQLQQSGAELVRPGVSVKISCKGSGYTFTDYVMHWVRQSHAKSLEWIGVISTHFGDGVYNQKFKGKATMTVDKSSSTAYMELARLTSEDSAIYYCAREVYGDSWYFDVWGAGTTVTVSS
# VL: B1 VL with I7T, V19A, I29L, N33D, V83L
# notes: Hybridoma-derived mouse mAb; also called Mouse E2G4E10B7
# B3: mouse anti-PD-1 monoclonal antibody E1G5D1H1 (antibody, V domains shown)
# VH: EVQLVESGGGLVKPGGSLKLSCAASGFTFSDFYMYWVRQTPEKRLEWVATISNSGTQTYYLDSVKGRFTISRDNAKNNLYLQMSSLKSEDTAMYYCARDYYRYDSWYFDVWGAGTTVTVSS
# VL: DIVLTQSPASLAVSQGQRATISCRASESVDFYGTSLMQWFQLKPGQPPKLLIYAASNVESGVPARFSGSGSGTNFSLNIHPVEEDDIAMYFCQQSRKVPWTFGGGTNLEIK
# notes: Hybridoma-derived mouse mAb; also called EIG5D1H1; E1G5DIH1
# Tests used:
# [1] = molecular target: T1, in house made human PD-1-Fc protein (human, biotin-labeled (sites not given)); experiment: competitive ELISA: antibody pre-mixed with biotin-labeled human PD-1-Fc, added to coated Pembrolizumab (competitor); unit from the axis 'Con of mAb, nM.'
# T1 construct: also called biotin-labeled human PD-1-Fc
# Experimental: ELISA plates were washed once with wash buffer (PBST, PBS+0.05% Tween-20) and then blocked with 200 μl/well blocking buffer (5% w/v non-fatty milk in PBST) for 2 hours at 37° C. […] After incubation at 37° C. for 40 minutes, plates were washed using wash buffer, added and incubated with 100 μl/well Peroxidase Streptavidin for 40 minutes at 37° C. Plates were washed again using wash buffer. Finally, TMB was added and the reaction was stopped using 1M H₂SO₄. The absorbance was read on a microplate reader using dual wavelength mode with 450 nm for TMB and 630 nm as the reference wavelength, and the OD (450-630) values were plotted against antibody concentrations. Data was analyzed using Graphpad Prism software and IC₅₀ values were reported.
# [2] = molecular target: T1, in house made human PD-1-Fc protein; experiment: cell-based blocking FACS: antibody pre-mixed with biotin-labeled human PD-1-Fc, added to GS-C2/PD-L1 cells expressing human PD-L1 (blocked ligand); unit from the axis 'Con of mAb, nM.'
# Experimental: GS-C2/PDL1 cells were harvested from cell culture flasks at the log phase, washed twice and re-suspended in PBS containing 2% v/v Fetal Bovine Serum (FACS buffer). GS-C2/PD-L1 cells, 0.6×10⁵ cells per welt, were incubated in 96 well-plates with 100 the antibody/PD1-Fc mixture for 40 minutes at 4° C. Cells were washed twice with FACS buffer, added with 100 R-Phycoerythrin Streptavidin (1:500 dilution in FACS buffer, Cat#:016-110-084, Jackson Immunoresearch), and incubated for 40 minutes at 4° C. in dark. Cells were washed twice and re-suspended in FACS buffer. Fluorescence was measured using a Becton Dickinson FACS Canto II-HTS equipment. Data was analyzed using Graphpad Prism software and IC₅₀ values were reported.
# [3] = molecular target: T1, in house made human PD-1-Fc protein; experiment: capture ELISA: antibody captured on anti-mouse IgG F(ab')2 coated plate, biotin-labeled human PD-1-Fc detected with streptavidin-HRP; unit from the axis 'Con of mAb, nM.'
# Experimental: Briefly, 96-well micro plates were coated with 100 μl 2 μg/ml AffiniPure Goat Anti-Mouse IgG F(ab′)₂ fragment specific (Cat#:115-005-072, Jackson lmmunoResearch) or Goat-anti-human IgG (Cat#:109-005-097, Jackson ImmunoResearch, for the positive control and negative control) in PBS overnight at 4° C. Plates were washed once with wash buffer (PBST, PBS+0.05% Tween-20) and then blocked with 200 μl/well blocking buffer (5% w/v non-fatty milk in PBST) for 2 hours at 37° C. […] After a final wash, plates were incubated with 100 μl/well TMB (Cat#:TMB-S-002, Innoreagents) at room temperature.
# The reaction was stopped 3-10 minutes later with 50 μl/well 1M H₂SO₄, and the absorbance was read on a microplate reader using dual wavelength mode with 450 nm for TMB and 630 nm as the reference wavelength. The OD (450-630) values were plotted against antibody concentrations. Data was analyzed using GraphPad Prism software and EC₅₀ values were reported.
# [4] = molecular target: T2, human PD-1 expressed on GS-J2/PD-1 cells (Genscript) (human, UniProt Q15116 25-288); experiment: cell-based binding FACS on GS-J2/PD-1 cells expressing human PD-1 (MFI); unit from the axis 'Con of mAb, nM.'
# T2 construct: whole, on cells; also called cell-surface human PD-1
# Experimental: The mouse anti-PD-1 antibodies of the disclosure were also tested for their binding activities to human PD-1s expressed on cell surface by flow cytometry (FACS), using GS-J2/PD-1 cell line (Genscript) expressing cell-surface human PD-1s.
# In specific, the 293F-mouse PD-1 cells and GS-J2/PD-1 cells were respectively harvested from cell culture flasks, washed twice and re-suspended in PBS containing 2% v/v Fetal Bovine Serum (FACS buffer). Then, 2×10⁵ cells per well were incubated in 96 well-plates with 100 μl of the anti-PD1 antibodies or controls at various concentrations for 40 minutes on ice. […] Following an incubation of 40 minutes at 4° C. in dark, cells were washed three times and re-suspended in FACS buffer. Fluorescence was measured using a Becton Dickinson FACS Canto II-HTS equipment and plotted against antibody concentrations. Data was analyzed using GraphPad Prism software and EC₅₀ values were reported.
# [5] = molecular target: T3, cynomolgus PD-1-his protein (Cat#:PD1-05223, Acro biosystems Inc.) (cynomolgus, UniProt B0LAJ3 25-170); experiment: SPR (Biacore T200), antibody captured, PD-1-his in flow, 1:1 fit
# T3 construct: Bought protein used in Biacore and indirect ELISA; also called monkey PD-1; Cyno PD-1
# Source text: (§1) The purified anti-PD-1 mouse monoclonal antibodies (mAbs) generated in Example 1 were characterized for binding affinities and binding kinetics by Biacore T200 system (GE healthcare, Pittsburgh, Pa., USA).
# (§2) Briefly, Goat-Anti-Mouse IgG (Cat#: BR100838, GE healthcare, Mouse Antibody Capture Kit) was covalently linked to a CMS chip (carboxy methyl dextran coated chip, Cat#: BR100530, GE healthcare) via primary amines using a standard amine coupling kit (GE healthcare, Pittsburgh, Pa., USA) provided by Biacore. Un-reacted moieties on the biosensor surface were blocked with ethanolamine. A Protein G chip (Cat#:29-1793-15, GE healthcare) was used for the positive controls affinity determination. The anti-PD-1 antibodies of the disclosure and the two positive controls at the concentration of 2 μg/ml were respectively flowed onto the chip at a flow rate of 10 μl/min. Then, serially diluted recombinant human PD-1-his protein (Cat#:10377-H08H, Sino biological Inc.), cynomolgus PD-1-his protein (Cat#:PD1-05223, Acro biosystems Inc.) and recombinant mouse PD-1-his protein (Cat#:50124-M08H, Sino Biological Inc), 2-fold dilution in HBS-EP⁺ buffer (provided by Biacore) starting at 200 nM, were respecitvely flowed onto the chip at a flow rate of 30 μl/min. The antigen-antibody association kinetics was followed for 2 minutes and the dissociation kinetics was followed for 10 minutes. The association and dissociation curves were fit to a 1:1 Langmuir binding model using Biacore evaluation software.
# [6] = molecular target: T4, recombinant human PD-1-his protein (Cat#:10377-H08H, Sino biological Inc.) (human, UniProt Q15116 25-167); experiment: as above
# T4 construct: Bought protein used as analyte in the Biacore tests; not shown: his tag
# Source text: as §1, §2
Binder,IC50 [1] [nM],IC50 [2] [nM],EC50 [3] [nM],EC50 [4] [nM],Kd [5] [nM],koff [5] [s⁻¹],kon [5] [M⁻¹ s⁻¹],Kd [6] [nM],koff [6] [s⁻¹],kon [6] [M⁻¹ s⁻¹]
B1,0.0982,0.782,0.0554,0.37,1.13,0.000119,106000,1.1,0.00022,199000
B2,0.162,0.484,0.0647,0.483,1.16,0.000161,138000,0.906,0.00022,243000
B3,0.0629,0.496,0.0379,0.23,0.125,4.32e-05,345000,0.236,8.56e-05,363000
